Paper PMC4186791

Target: UbxIVa Pro4 (Drosophila melanogaster)
Test: two-hybrid; LexA-Ubx variant (pLexA) and B42-partner (pB42) co-transformed into S. cerevisiae EGY48 carrying p8op-LacZ; blue/white colonies on X-gal and liquid β-galactosidase (ONPG) assay after galactose induction at 30°C, reported in Miller units

| percent of binding lost relative to UbxIb Pro4 [%] | Binder |
| --- | --- |
| 85 | Cap-binding protein 1 (natural protein) MSRRRAHDTEDEGYDHRRNKRRRVSENQEIEDRLESLILRVGERSTSSVESNLEGLVSVLEADLGTFRLKILRILSDCAVRMPEKCTVYTTLVGLLNAKNYKFGGEFVDHMVKTFKESLKMCRWDAARYSLRFLADLVNCHVISATSLLQLLDTMIDVSNEDTVPQVRRDWFVFAVLSTLPWVGRDLYEKKESALESLLLRIEVYLNKRSKKHHNALRVWSSDAPHPQEEYLDCLWAQIRKLRQDNWAEKHIPRPYLVFDSILCEALQHNLPTIVPPPHHDNFEYPMPWVVYRMFDYTDCPDGPNLPGAHSIERFLIEEHLHHIIETYHHERKDCAAQLLSFPYKHKIPLEYCIVEVVFAELFHMPTPRYLDICYGSILIELCKLQPATLPQVLAQATEILFMRIDSMNTSCFDRFVNWFSYHLSNFKFTWSWDEWDSCLLLDGEHPRPKFIQEVLQKCLRLSYHQRITEMMPTTYAKLIPLTPVPNYKYANEEAANLPGTTVAHQLVVAIRQKCTPEEVVNILKDIPNSGYSGEEMSDGSFNALKIDVFVQTLLNLGSKSFSHSFAAISKFHSVFRALAETEEAQICILHNIFELWSSHQQMMVVLIDKLLKLQIVDCSAVATWIFSKEMTGEFTKLYLWEILHLTIKKMNKHVIKLNTELSEAKEKLAKADSSSSDSEDDSSHKRKKPITHADKPSEEVVERMEEKLEAANVNQKRLFLIVFQRFIMILSEHLLRSDTDGRDPDTDWYRWTIGRLQQVFLMHHEQVQKYSSTLETLLFTSDLDTHILEVFQQFVALRA |
| 60 | Armadillo (natural protein) MSYMPAQNRTMSHNNQYNPPDLPPMVSAKEQTLMWQQNSYLGDSGIHSGAVTQVPSLSGKEDEEMEGDPLMFDLDTGFPQNFTQDQVDDMNQQLSQTRSQRVRAAMFPETLEEGIEIPSTQFDPQQPTAVQRLSEPSQMLKHAVVNLINYQDDAELATRAIPELIKLLNDEDQVVVSQAAMMVHQLSKKEASRHAIMNSPQMVAALVRAISNSNDLESTKAAVGTLHNLSHHRQGLLAIFKSGGIPALVKLLSSPVESVLFYAITTLHNLLLHQDGSKMAVRLAGGLQKMVTLLQRNNVKFLAIVTDCLQILAYGNQESKLIILASGGPNELVRIMRSYDYEKLLWTTSRVLKVLSVCSSNKPAIVDAGGMQALAMHLGNMSPRLVQNCLWTLRNLSDAATKVEGLEALLQSLVQVLGSTDVNVVTCAAGILSNLTCNNQRNKATVCQVGGVDALVRTIINAGDREEITEPAVCALRHLTSRHVDSELAQNAVRLNYGLSVIVKLLHPPSRWPLIKAVIGLIRNLALCPANHAPLREHGAIHHLVRLLMRAFQDTERQRSSIATTGSQQPSAYADGVRMEEIVEGTVGALHILARESHNRALIRQQSVIPIFVRLLFNEIENIQRVAAGVLCELAADKEGAEIIEQEGATGPLTDLLHSRNEGVATYAAAVLFRMSEDKPQDYKKRLSIELTNSLLREDNNIWANADLGMGPDLQDMLGPEEAYEGLYGQGPPSVHSSHGGRAFHQQGYDTLPIDSMQGLEISSPVGGGGAGGAPGNGGAVGGASGGGGNIGAIPPSGAPTSPYSMDMDVGEIDAGALNFDLDAMPTPPNDNNNLAAWYDTDC |
